Where “and” joins values, the source holds several entries; their conditions need not be identical. Identical values can stand only once. Like-named read-outs stand apart in the source and are kept apart here. One block for each substance: values may come before it.
Columns and labels:
LYN SH2 domain (human) = LYN SH2 domain (human) (UniProt P07948); test: peptide or protein array; SH2/PTB proteins spotted on aldehyde slides, rhodamine peptide titrated in buffer B (20 mM HEPES, 100 mM KCl, 0.1% Tween-20, 5 mM DTT, pH 7.8), 1 h at room temperature; replicate assays
[1] = molecular target: ZAP70 tandem SH2 domains (human); test: as above
GRAP2 SH2 domain (human) = GRAP2 SH2 domain (human) (UniProt O75791); test: as above
GRB7 SH2 domain (human) = GRB7 SH2 domain (human) (UniProt Q14451); test: as above
LCK SH2 domain (human) = LCK SH2 domain (human) (UniProt P06239); test: as above
BCAR3 (Homo sapiens) = BCAR3 (Homo sapiens) (UniProt O75815); details: cited from earlier work
SH2B3 (Homo sapiens) = SH2B3 (Homo sapiens) (UniProt Q9UQQ2); details: cited from earlier work
YES1 (Homo sapiens) = YES1 (Homo sapiens) (UniProt P07947); details: cited from earlier work
PIK3R3-N (Homo sapiens) [2] = molecular target: PIK3R3-N (Homo sapiens) (UniProt Q92569); details: cited from earlier work
SYK-NC (Homo sapiens) [3] = molecular target: SYK-NC (Homo sapiens) (UniProt P43405); details: cited from earlier work
PLCG2-NC (Homo sapiens) = PLCG2-NC (Homo sapiens) (UniProt P16885); details: cited from earlier work
PIK3R3-C (Homo sapiens) = PIK3R3-C (Homo sapiens) (UniProt Q92569); details: cited from earlier work
VAV2 (Homo sapiens) = VAV2 (Homo sapiens) (UniProt P52735); details: cited from earlier work
PIK3R2-N (Homo sapiens) = PIK3R2-N (Homo sapiens) (UniProt O00459); details: cited from earlier work
SYK-NC (Homo sapiens) [4] = molecular target: SYK-NC (Homo sapiens) (UniProt P43405); details: cited from earlier work; remark: listed apart in the source
PIK3R3-N (Homo sapiens) [5] = molecular target: PIK3R3-N (Homo sapiens) (UniProt Q92569); details: cited from earlier work; remark: listed apart in the source
PLCG1-NC (Homo sapiens) = PLCG1-NC (Homo sapiens) (UniProt P19174); details: cited from earlier work
SRC (Homo sapiens) = SRC (Homo sapiens) (UniProt P12931); details: cited from earlier work
ABL2 (Homo sapiens) = ABL2 (Homo sapiens) (UniProt P42684); details: cited from earlier work
FGR (Homo sapiens) = FGR (Homo sapiens) (UniProt P09769); details: cited from earlier work
SHC1-PTB (Homo sapiens) = SHC1-PTB (Homo sapiens) (UniProt P29353); details: cited from earlier work
PIK3R3-NC (Homo sapiens) = PIK3R3-NC (Homo sapiens) (UniProt Q92569); details: cited from earlier work
SOCS2 (Homo sapiens) = SOCS2 (Homo sapiens) (UniProt O14508); details: cited from earlier work
HSH2D (Homo sapiens) = HSH2D (Homo sapiens) (UniProt Q96JZ2); details: cited from earlier work
SOCS6 (Homo sapiens) = SOCS6 (Homo sapiens) (UniProt O14544); details: cited from earlier work
SUPT6H (Homo sapiens) = SUPT6H (Homo sapiens) (UniProt Q7KZ85); details: cited from earlier work
SH2B2 (Homo sapiens) = SH2B2 (Homo sapiens) (UniProt O14492); details: cited from earlier work
Chain of SH2B2 (Homo sapiens) (O14492 412-520): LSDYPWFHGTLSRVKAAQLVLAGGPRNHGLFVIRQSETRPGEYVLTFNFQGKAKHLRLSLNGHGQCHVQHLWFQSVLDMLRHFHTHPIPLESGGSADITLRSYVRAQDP

Chain of GRAP2 SH2 domain (human) (O75791 58-149): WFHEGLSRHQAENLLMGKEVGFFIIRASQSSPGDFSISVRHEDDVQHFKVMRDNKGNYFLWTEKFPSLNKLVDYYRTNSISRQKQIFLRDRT
Chain of LYN SH2 domain (human) (P07948 129-226): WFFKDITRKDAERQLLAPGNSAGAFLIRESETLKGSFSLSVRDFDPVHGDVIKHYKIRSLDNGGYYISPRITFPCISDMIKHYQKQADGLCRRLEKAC
Chain of LCK SH2 domain (human) (P06239 127-224): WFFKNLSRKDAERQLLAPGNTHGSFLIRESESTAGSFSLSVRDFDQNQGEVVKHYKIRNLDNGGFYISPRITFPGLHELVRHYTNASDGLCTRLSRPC
Chain of BCAR3 (Homo sapiens) (O75815 149-258): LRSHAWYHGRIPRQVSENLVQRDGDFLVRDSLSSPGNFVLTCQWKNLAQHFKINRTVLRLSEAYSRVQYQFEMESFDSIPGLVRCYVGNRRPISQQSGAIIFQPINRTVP
Chain of PIK3R2-N (Homo sapiens) (O00459 325-721): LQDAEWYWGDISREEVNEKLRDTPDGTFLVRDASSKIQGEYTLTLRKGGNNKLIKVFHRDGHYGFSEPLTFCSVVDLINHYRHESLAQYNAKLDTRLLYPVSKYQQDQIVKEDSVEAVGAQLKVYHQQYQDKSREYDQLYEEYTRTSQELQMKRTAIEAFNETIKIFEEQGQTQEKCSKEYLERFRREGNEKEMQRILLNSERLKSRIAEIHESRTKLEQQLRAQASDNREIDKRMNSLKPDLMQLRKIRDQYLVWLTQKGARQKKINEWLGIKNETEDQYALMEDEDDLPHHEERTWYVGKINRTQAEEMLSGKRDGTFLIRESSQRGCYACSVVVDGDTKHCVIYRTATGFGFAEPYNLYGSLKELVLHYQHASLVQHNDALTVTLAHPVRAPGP
Chain of PLCG2-NC (Homo sapiens) (P16885 527-740): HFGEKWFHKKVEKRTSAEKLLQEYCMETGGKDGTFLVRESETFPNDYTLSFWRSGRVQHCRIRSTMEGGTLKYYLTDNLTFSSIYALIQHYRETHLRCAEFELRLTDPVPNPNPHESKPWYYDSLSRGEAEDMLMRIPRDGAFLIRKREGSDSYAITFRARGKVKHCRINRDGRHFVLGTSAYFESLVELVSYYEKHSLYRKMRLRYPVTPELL
Chain of SUPT6H (Homo sapiens) (Q7KZ85 1320-1436): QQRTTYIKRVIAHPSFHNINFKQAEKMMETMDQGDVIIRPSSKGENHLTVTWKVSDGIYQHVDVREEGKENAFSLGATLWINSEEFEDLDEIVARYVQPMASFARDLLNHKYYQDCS
Chain of YES1 (Homo sapiens) (P07947 153-260): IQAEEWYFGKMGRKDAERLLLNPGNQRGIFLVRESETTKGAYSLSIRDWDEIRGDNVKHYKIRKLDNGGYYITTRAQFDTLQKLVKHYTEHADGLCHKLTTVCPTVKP
Chain of SOCS6 (Homo sapiens) (O14544 379-496): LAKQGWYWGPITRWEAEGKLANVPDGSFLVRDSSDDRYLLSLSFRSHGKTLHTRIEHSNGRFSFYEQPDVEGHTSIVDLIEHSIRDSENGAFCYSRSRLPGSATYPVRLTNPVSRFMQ
Chain of PLCG1-NC (Homo sapiens) (P19174 545-761): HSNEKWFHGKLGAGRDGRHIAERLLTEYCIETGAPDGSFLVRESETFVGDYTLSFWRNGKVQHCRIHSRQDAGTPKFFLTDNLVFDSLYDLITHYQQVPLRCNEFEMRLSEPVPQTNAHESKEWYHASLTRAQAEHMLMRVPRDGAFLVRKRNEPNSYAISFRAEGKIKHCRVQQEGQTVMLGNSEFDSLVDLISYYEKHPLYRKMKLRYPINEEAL
Chain of GRB7 SH2 domain (human) (Q14451 431-527): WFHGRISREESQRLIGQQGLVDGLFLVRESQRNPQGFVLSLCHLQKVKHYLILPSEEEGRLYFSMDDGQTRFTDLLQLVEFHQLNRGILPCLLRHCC
Chain of VAV2 (Homo sapiens) (P52735 668-772): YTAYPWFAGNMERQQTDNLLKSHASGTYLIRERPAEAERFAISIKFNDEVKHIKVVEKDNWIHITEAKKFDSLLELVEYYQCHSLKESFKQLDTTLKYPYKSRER
Chain of SH2B3 (Homo sapiens) (Q9UQQ2 359-467): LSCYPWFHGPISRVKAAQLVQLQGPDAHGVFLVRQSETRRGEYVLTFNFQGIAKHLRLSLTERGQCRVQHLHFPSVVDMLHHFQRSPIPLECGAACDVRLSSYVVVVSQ
Chain of ABL2 (Homo sapiens) (P42684 168-268): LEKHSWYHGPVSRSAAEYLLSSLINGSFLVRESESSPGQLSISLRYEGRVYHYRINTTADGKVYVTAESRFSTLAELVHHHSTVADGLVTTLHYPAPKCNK
Chain of SOCS2 (Homo sapiens) (O14508 43-161): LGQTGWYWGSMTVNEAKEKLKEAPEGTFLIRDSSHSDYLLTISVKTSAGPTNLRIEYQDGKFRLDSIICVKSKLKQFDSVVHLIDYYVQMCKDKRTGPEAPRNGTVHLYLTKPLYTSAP
Chain of HSH2D (Homo sapiens) (Q96JZ2 29-130): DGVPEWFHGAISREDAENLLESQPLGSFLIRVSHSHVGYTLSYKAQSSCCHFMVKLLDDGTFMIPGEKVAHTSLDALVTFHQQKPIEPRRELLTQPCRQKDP
Chain of SHC1-PTB (Homo sapiens) (P29353 483-583): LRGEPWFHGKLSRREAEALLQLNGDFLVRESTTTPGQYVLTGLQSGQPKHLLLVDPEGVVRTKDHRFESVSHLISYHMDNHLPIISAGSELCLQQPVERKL

Kd (LYN SH2 domain (human)): 201 nM and 579 nM
Kd [1]: 2710 nM and 1630 nM
Kd (GRAP2 SH2 domain (human)): 808 nM and 1360 nM
Kd (GRB7 SH2 domain (human)): 341 nM
Kd (LCK SH2 domain (human)): 214 nM and 375 nM
Substance: ErbB4 pY1262 phosphopeptide, rhodamine-labelled, for protein microarrays

Substance: …pYEEMRAFQ
apparent Kd (screen) (BCAR3 (Homo sapiens)): 2000 nM
apparent Kd (screen) (SH2B3 (Homo sapiens)): 1520 nM
apparent Kd (screen) (YES1 (Homo sapiens)): 2000 nM
apparent Kd (screen) (PIK3R3-N (Homo sapiens) [2]): 58 nM

Substance: …pYLIPQQGFd
apparent Kd (screen) (SYK-NC (Homo sapiens) [3]): 534 nM
apparent Kd (screen) (PLCG2-NC (Homo sapiens)): 2000 nM
apparent Kd (screen) (PIK3R3-C (Homo sapiens)): 193 nM
apparent Kd (screen) (VAV2 (Homo sapiens)): 2000 nM
apparent Kd (screen) (PIK3R2-N (Homo sapiens)): 424 nM

Substance: …pYLVPQQGF
apparent Kd (screen) (SYK-NC (Homo sapiens) [4]): 372 nM
apparent Kd (screen) (PIK3R3-N (Homo sapiens) [5]): 1930 nM
apparent Kd (screen) (PLCG1-NC (Homo sapiens)): 2000 nM
apparent Kd (screen) (SRC (Homo sapiens)): 757 nM
apparent Kd (screen) (ABL2 (Homo sapiens)): 2000 nM

Substance: …pYWDQDPPE
apparent Kd (screen) (FGR (Homo sapiens)): 2000 nM
apparent Kd (screen) (SHC1-PTB (Homo sapiens)): 88 nM
apparent Kd (screen) (PIK3R3-NC (Homo sapiens)): 783 nM
apparent Kd (screen) (SOCS2 (Homo sapiens)): 2000 nM
apparent Kd (screen) (HSH2D (Homo sapiens)): 2000 nM
apparent Kd (screen) (SOCS6 (Homo sapiens)): 2000 nM
apparent Kd (screen) (SUPT6H (Homo sapiens)): 2000 nM
apparent Kd (screen) (SH2B2 (Homo sapiens)): 1470 nM

From publication PMC3433420
